According to the supplement of paper PMC10567573:

B1: PTPLAD1 (parent)
chain: YINFRHLYKQRRRRYGQKKKKIH

Variants of: B1
Assay: protein stability index of a GFP-peptide fusion (GPS, HEK-293T) (PSI 1-6); higher = more stable
Settings: c terminus: native
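Also: lentivirally expressed fusions sorted by FACS into six bins by GFP to DsRed ratio, PSI derived from sequencing read proportions per bin multiplied by bin number.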

Protein stability index: each site, then its substitutions
R14: S 1.85, E 1.78, F 2.16, N 2.15, G 2.47, P 2.05, V 2.14, I 1.6, Y 1.78, H 1.96, K 2.22, A 2.57, T 1.22, L 2.34
N3: K 1.97, E 1.61, V 1.61, P 2.09, S 2.68, A 1.9, L 2.72, T 2.31, R 4.4, Q 1.29, C 1.57, F 2.51, W 1.37, I 1.58, D 2.39, H 2.52, Y 1.71
Q17: T 2.54, A 2.66, L 2.07, M 1.73, W 1.63, F 2.3, Y 1.7, K 1.76, N 4, P 1.46, C 1.48, V 1.89, E 2.55, R 2.59, G 2.25, D 2.23, H 1.72
R13: D 1.37, A 1.7, F 2.49, V 2.13, I 1.9, H 2.4, P 3.64, E 2.09, L 2.3, K 1.45, S 1.41, G 1.41, T 1.75, Q 1.91, N 1.25, Y 2.28
K19: F 2.25, Q 2.09, R 1.91, L 3.09, H 2.49, E 1.57, W 2.02, G 2.15, D 2.66, T 1.96, S 2.07, P 1.95, A 2.04, I 2.54, Y 2.12, M 2.31, N 1.62
K18: D 2.44, R 1.97, Y 2.39, N 1.96, T 2.19, V 2.29, G 1.91, E 2.17, P 1.52, F 2.46, I 2.86, M 1.78, W 2.22, L 2.42, Q 1.56, C 2.62, S 1.65, A 2.15
H6: G 1.75, W 1.75, Y 1.88, E 1.73, L 2.3, S 1.84, M 1.75, P 1.7, V 2.06, T 2.02, C 2.14, A 1.81, K 2.44, F 1.54
I2: Y 2.1, D 3.45, A 2.7, F 3.06, G 2.19, Q 3.45, V 1.97, M 2, N 3.6, K 2.27, H 1.29, S 2.53, R 2.05, C 2.2, L 3.44, P 2.9
Y15: M 1.37, W 2.59, R 2.85, Q 1.88, T 1.69, A 2.12, G 2.14, S 1.74, H 1.72, L 2, F 1.53, E 4.57, I 2.11, V 2.14, N 1.11, K 2.33, C 2.22, D 2.48
K21: C 2.5, H 1.94, G 2.96, D 1.33, M 2.3, L 1.92, I 2.14, F 2.76, N 2.27
K9: R 3.03, T 2.12, G 1.95, V 1.91, W 2.45, S 2.6, N 2.8, Y 2.6, A 3.21, H 2.17, C 1.83, P 2.27, D 3.3, Q 1.92, I 2.26, E 2.03, L 1.55
Y8: I 1.56, E 2.18, G 2.03, H 2.31, N 2.72, K 2.5, P 2.81, A 2.52, S 1.95, C 2.01, L 1.76, D 3.25, T 1.76, R 2.2, W 2.9
L7: Y 2.29, D 3.07, Q 2.24, A 2.01, N 2.72, R 2.77, H 2.31, G 2.68, P 2.92, S 2.04, T 2.26, E 2.79, V 2.93, F 1.41, I 1.94, M 2.31
R12: D 2.24, G 2.92, S 2.18, Y 2.01, M 2.44, A 1.44, F 1.62, V 3.11, T 3.06, Q 2.26, N 2.05, W 2.15, I 2.44, K 1.91, E 1.58, P 1.96, L 1.25, H 1.93, C 1.55
Y1: T 2.25, S 3.15, W 2.96, R 1.35, V 2.1, Q 2.24, P 1.93
F4: W 1.1, T 2.01, D 3.02, L 2.87, C 2.03, G 1.9, E 3.23, H 3.71, S 3.2, I 2.43, M 1.74, P 1.64, R 2.96, Y 1.99, N 2.29, Q 2.77, K 3.29
R11: T 2.02, G 2.54, L 1.61, D 1.39, H 2.15, C 1.58, Q 2.37, S 2.3, N 2.91, P 2.84, M 1.32, A 1.72, K 1.65, Y 2.61, F 1.73
R5: N 1.57, A 2.93, M 1.59, P 2.49, G 1.38, T 2.38, W 1.55, C 1.45, F 2.14, K 2.51, E 3.34, H 1.8, I 1.53, Y 2.37, S 1.17, L 1.79, D 2.02, Q 2.3
Q10: P 1.66, K 2, I 1.3, M 1.96, A 2.59, H 2.27, W 1.8, F 2.15, E 1.96, G 1.92, L 2.14, T 2.29, Y 2.06, R 2.26, D 1.88, V 1.47, S 1.7, C 2.22
G16: V 2.44, S 2.71, E 1.85, K 2.57, L 2.23, C 2.27, Y 1.25, H 1.35, M 2.27, F 1.6, A 2.54, R 1.74, Q 1.56, T 2.88, N 1.4, I 2.21, W 2.76, D 2.6, P 1.66
K20: E 1.66, A 2.05, R 1.82, I 2.92, M 1.88, S 1.69, G 2.77, H 2.35, Y 3.24, F 1.71, D 3.01, W 1.91, C 1.83, T 1.99, Q 1.46, P 2, N 1.89
